Changes are numbered by the printed parent chain. Names and notes keep the numbering of the source. Blank lines part the entries; values can stand above or below the binder they belong to.
Assays:
huKLK4 = huKLK4 (human, UniProt Q9Y5K2 31-254, limits assumed); test: SPR (BIAcore T200), as for Table 1
human KLK5 [1] = target: T1, human KLK5 (human, UniProt Q9Y337 67-293); test: SPR (BIAcore T200), as for Table 1
T1 construct: also called huKLK5; KLK5 AMC
T1 sequence: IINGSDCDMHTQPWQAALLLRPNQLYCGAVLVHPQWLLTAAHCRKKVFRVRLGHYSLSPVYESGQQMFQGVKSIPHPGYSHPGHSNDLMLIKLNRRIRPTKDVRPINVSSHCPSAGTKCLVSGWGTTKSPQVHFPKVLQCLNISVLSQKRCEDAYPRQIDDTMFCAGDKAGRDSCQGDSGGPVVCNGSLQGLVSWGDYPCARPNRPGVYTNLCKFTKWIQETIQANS

huKLK11 = target: T2, huKLK11 (human, UniProt Q9UBX7 54-282, limits assumed); test: SPR (BIAcore T200), as for Table 1
T2 sequence (looked up): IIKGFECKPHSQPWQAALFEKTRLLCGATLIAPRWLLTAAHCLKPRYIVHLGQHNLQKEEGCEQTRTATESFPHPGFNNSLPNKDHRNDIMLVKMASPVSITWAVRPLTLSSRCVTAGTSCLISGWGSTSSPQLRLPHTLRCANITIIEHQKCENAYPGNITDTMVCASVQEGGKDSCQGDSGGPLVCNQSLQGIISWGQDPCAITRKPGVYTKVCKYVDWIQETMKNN

huKLK1 = huKLK1 (human, UniProt P06870 25-262, limits assumed); test: SPR (BIAcore T200), as for Table 1
Sequence of huKLK1 (P06870 25-262 limits assumed): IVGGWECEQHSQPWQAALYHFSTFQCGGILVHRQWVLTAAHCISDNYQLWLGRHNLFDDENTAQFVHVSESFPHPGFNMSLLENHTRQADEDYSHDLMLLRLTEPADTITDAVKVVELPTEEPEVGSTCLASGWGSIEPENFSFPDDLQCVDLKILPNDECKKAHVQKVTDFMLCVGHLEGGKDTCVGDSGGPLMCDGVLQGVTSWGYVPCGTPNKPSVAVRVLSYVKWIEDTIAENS

[2] = target: T3, cyano KLK7 (SEQ ID NO: 6 plus a C-terminal FLAG tag) (cynomolgus monkey, UniProt P49862 30-253 (human entry)); test: cell-based or functional assay
T3 sequence (P49862 other isoform, or with tags, fused parts or gaps): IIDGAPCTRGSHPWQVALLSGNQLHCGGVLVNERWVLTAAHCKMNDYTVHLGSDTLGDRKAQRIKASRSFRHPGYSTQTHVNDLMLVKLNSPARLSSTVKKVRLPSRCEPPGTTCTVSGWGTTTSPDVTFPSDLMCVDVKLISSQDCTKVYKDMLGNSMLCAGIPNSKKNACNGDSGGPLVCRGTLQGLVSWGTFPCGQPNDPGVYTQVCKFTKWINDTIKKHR

[3] = target: T4, human KLK7 (SEQ ID NO: 4 plus a C-terminal FLAG tag) (human, UniProt P49862 30-253); test: cell-based or functional assay
T4 sequence (P49862 30-253): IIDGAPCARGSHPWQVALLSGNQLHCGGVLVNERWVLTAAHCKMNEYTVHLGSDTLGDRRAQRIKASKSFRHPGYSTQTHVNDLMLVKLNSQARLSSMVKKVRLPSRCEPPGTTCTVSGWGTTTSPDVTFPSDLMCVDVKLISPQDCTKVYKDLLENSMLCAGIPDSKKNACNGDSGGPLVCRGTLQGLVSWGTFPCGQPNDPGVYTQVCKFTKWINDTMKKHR

human KLK7 [4] = target: T5, human KLK7 (human, UniProt P49862 30-253); test: SPR BIAcore T200, antibody on protein A chip, 25 C
T5 construct: Antigen injected in SPR; also called hu KLK7; huKLK7
T5 sequence (P49862 30-253): as above
Experimental: (§1) The binding affinity of the antibodies was determined by BIAcore™ T200 machine. Rabbit antibodies were recombinantly expressed. For kinetics measurements, antibodies were captured on research grade protein A chip (GE Healthcare, USA) to achieve approximately 300 RU. Ten-fold serial dilutions of human and cyano KLK7 were injected in HBS-P buffer at 25° C. with a flow rate of 30 μL/min. Association rates (ka) and dissociation rates (kd) were calculated using a 1:1 Langmuir binding model (BIAcore™ T200 Evaluation Software version 2.0). The equilibrium dissociation constant (KD) was calculated as the ratio kd/ka.

cynomolgus monkey KLK7 [5] = target: T6, cynomolgus monkey KLK7 (cynomolgus monkey, UniProt P49862 30-253 (human entry)); test: SPR BIAcore T200, antibody on protein A chip, 25 C
T6 construct: Antigen injected in SPR; also called Cy KLK7; cyno KLK7
T6 sequence (P49862 other isoform, or with tags, fused parts or gaps): as the sequence (P49862 other isoform, or with tags, fused parts or gaps) above
Experimental: as §1

human KLK7 [6] = target: T5, human KLK7; test: kinetics of bispecific antibody, method not restated (SPR implied)
cynomolgus monkey KLK7 [7] = target: T6, cynomolgus monkey KLK7; test: as above
[8] = target: T3, cyano KLK7 (SEQ ID NO: 6 plus a …); test: cell-based or functional assay; remark: listed apart in the source
cynomolgus monkey KLK5 [9] = target: T7, cynomolgus monkey KLK5 (cynomolgus monkey, UniProt Q9Y337 67-293 (human entry)); test: cell-based or functional assay
T7 chain: T1 sequence with M9E, R21G, A29G, V71I, R98H, P99S, K128R, K169E, R202K

human KLK5 [10] = target: T1, human KLK5; test: cell-based or functional assay
[11] = target: T4, human KLK7 (SEQ ID NO: 4 plus a …); test: cell-based or functional assay; remark: listed apart in the source
human KLK5 [12] = target: T1, human KLK5; test: kinetics of bispecific antibody, method not restated (SPR implied)
cynomolgus monkey KLK5 [13] = target: T7, cynomolgus monkey KLK5; test: as above

Sequence of huKLK4 (Q9Y5K2 31-254 limits assumed): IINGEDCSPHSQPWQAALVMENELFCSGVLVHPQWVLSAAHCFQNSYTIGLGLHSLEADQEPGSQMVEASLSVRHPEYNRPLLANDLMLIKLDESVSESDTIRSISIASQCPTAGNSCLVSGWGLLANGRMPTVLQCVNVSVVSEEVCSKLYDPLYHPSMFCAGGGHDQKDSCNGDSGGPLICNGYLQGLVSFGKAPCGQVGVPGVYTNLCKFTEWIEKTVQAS

binding result (huKLK4): no binding | binding result (human KLK5 [1]): no binding | binding result (huKLK11): no binding | binding result (huKLK1): no binding | IC50, KLK7 direct functional assay (Mca peptide substrate), bivalency not accounted for [2]: 0.15 nM | IC50, KLK7 direct functional assay (Mca peptide substrate), bivalency not accounted for [3]: 0.11 nM | koff (human KLK7 [4]): < 1e-06 s⁻¹ | koff (cynomolgus monkey KLK7 [5]): < 1e-06 s⁻¹
B1: 14H11 (antibody, V domains shown)
VH: QSLEESGGDLVKPGASLTLTCTASGFSFSSSYYMCWVRQAPGKGLEWIASIYAGSSGAPYYAGWAKGRFTISKTSSTAVTLQMSSLTAADTATYFCAREGFAETGGYGYAAYFNLWGPGTLVTVSS
VL: AIEMTQSPPSLSASVGETVRIRCLASEDIASSVSWYQQKPGKPPTLLIYGASNLESGVPPRFTGSGSGTDYTLTIGGVQAEDAATYYCLGGYSYSSTGTAFGAGTKVEIK
notes: Recombinant rabbit anti-KLK7 monoclonal antibody, expressed in Expi293 cells, protein A purified, bivalent; also called rb.14H11

Kd (human KLK7 [6]): 0.00024 nM | koff (human KLK7 [6]): 1.4e-05 s⁻¹ | kon (human KLK7 [6]): 5.7e+07 M⁻¹ s⁻¹ | Kd (cynomolgus monkey KLK7 [7]): 0.003 nM | koff (cynomolgus monkey KLK7 [7]): 7e-05 s⁻¹ | kon (cynomolgus monkey KLK7 [7]): 3e+07 M⁻¹ s⁻¹ | IC50, KLK7 direct functional assay (Mca-RPKPVE-Nval-WRK(Dnp)), bivalency corrected [8]: 0.36 nM | IC50, KLK5 direct functional assay (Boc-Val-Pro-Arg-AMC), bivalency corrected (cynomolgus monkey KLK5 [9]): 0.58 nM | IC50, KLK5 direct functional assay (Boc-Val-Pro-Arg-AMC), bivalency corrected (human KLK5 [10]): 0.54 nM | IC50, KLK7 direct functional assay (Mca-RPKPVE-Nval-WRK(Dnp)), bivalency corrected [11]: 0.34 nM | Kd (human KLK5 [12]): 0.0015 nM | koff (human KLK5 [12]): 1.97e-05 s⁻¹ | kon (human KLK5 [12]): 1.5e+07 M⁻¹ s⁻¹ | Kd (cynomolgus monkey KLK5 [13]): 0.016 nM | koff (cynomolgus monkey KLK5 [13]): 0.00018 s⁻¹ | kon (cynomolgus monkey KLK5 [13]): 1.11e+07 M⁻¹ s⁻¹
B2: hu.10C5VY.hu14H11c.L2H11 LS (bispecific antibody, human IgG1, kappa, N297G)
heavy 1: EQQLVESGGGLIQPGGSLRLSCAASGFSFSSSYYMSWVREAPGKGLEWVSSIYAGSSGAPYYAGWAKGRFTISRDNSKNTLYLQMNSLRAEDTAVYYCAREGFAETGGYGYAAYFNLWGPGTLVTVSSASTKGPSVFPLAPSSKSTSGGTAALGCLVKDYFPEPVTVSWNSGALTSGVHTFPAVLQSSGLYSLKSVVTVPSSSLGTQTYICNVNHKPSNTKVDKKVEPKSCDKTHTCPPCPAPELLGGPSVFLFPPKPKDTLMISRTPEVTCVVVDVSHEDPEVKFNWYVDGVEVHNAKTKPREEQYGSTYRVVSVLTVLHQDWLNGKEYKCKVSNKALPAPIEKTISKAKGQPREPQVYTLPPSREEMTKNQVSLWCLVKGFYPSDIAVEWESNGQPENNYKTTPPVLDSDGSFFLYSKLTVDKSRWQQGNVFSCSVLHEALHSHYTQKSLSLSPGK
light 1: DIQMTQSPSSLSASVGDRVTITCLASEDIASSVSWYQKKPGKAPKLLIYGASNLESGVPSRFSGSGSGTDYTLTISSLQPEDFATYYCLGGYSYSSTGTAFGGGTKVEIKRTVAAPSVFIFPPSDEQLKSGTASVECLLNNFYPREAKVQWKVDNALQSGNSQESVTEQDSKDSTYSLSSTLTLSKADYEKHKVYACEVTHQGLSSPVTKSFNRGEC
heavy 2: EVQLVESGGGLVQPGGSLRLSCAASGFSLSSYGVTWVRKAPGKGLEWIGYITSVYGVSYYASWAKSRSTISRDTSKNTVYLQMGSLRAEDMAVYYCARENPDYGYAYDAWGQGTTVTVSSASTKGPSVFPLAPSSKSTSGGTAALGCLVKDYFPEPVTVSWNSGALTSGVHTFPAVLQSSGLYSLESVVTVPSSSLGTQTYICNVNHKPSNTKVDKKVEPKSCDKTHTCPPCPAPELLGGPSVFLFPPKPKDTLMISRTPEVTCVVVDVSHEDPEVKFNWYVDGVEVHNAKTKPREEQYGSTYRVVSVLTVLHQDWLNGKEYKCKVSNKALPAPIEKTISKAKGQPREPQVYTLPPSREEMTKNQVSLSCAVKGFYPSDIAVEWESNGQPENNYKTTPPVLDSDGSFFLVSKLTVDKSRWQQGNVFSCSVLHEALHSHYTQKSLSLSPGK
light 2: AIRMTQSPSSFSASTGDRVTITCQASESISNELSWYQEKPGKAPKLLIYYASTLASGVPSRFSGSGSGTDFTLTISSLQPEDFATYYCAQGYGSSGVENVFGGGTKVEIKRTVAAPSVFIFPPSDEQLKSGTASVKCLLNNFYPREAKVQWKVDNALQSGNSQESVTEQDSKDSTYSLSSTLTLSKADYEKHKVYACEVTHQGLSSPVTKSFNRGEC
notes: hIgG1 N297G knob-in-hole bispecific with M428L/N434S and the chain pairing mutations; also called anti-KLK5/KLK7 bispecific antibody with M428L/N434S (LS)
